Results on three molecules are retold here after article PMC3778711, “The central role of mosquito cytochrome P450 CYP6Zs in insecticide detoxification revealed by functional expression and structural modelling” (Biochemical Journal, 2013).

In one data set the target is T1, CYP6Z2 (AgCYP6Z2) (Anopheles gambiae, UniProt A8I285).
T1 construct: with NADPH--cytochrome P450 reductase
T1 sequence (A8I285 1-492): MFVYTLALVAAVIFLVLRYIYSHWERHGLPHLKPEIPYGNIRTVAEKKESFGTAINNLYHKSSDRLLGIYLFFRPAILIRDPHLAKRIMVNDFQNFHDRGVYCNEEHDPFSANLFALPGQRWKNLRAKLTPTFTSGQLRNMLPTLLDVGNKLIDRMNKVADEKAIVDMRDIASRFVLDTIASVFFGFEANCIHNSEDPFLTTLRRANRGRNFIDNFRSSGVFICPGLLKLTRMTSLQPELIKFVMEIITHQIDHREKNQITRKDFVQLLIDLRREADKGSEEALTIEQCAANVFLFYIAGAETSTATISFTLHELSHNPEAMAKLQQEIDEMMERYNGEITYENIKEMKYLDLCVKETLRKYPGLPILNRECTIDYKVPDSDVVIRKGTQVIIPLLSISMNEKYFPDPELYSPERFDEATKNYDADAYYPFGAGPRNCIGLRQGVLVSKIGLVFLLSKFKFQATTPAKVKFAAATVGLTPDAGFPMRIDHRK
T1 sequence (Q86QH5 1-679 partner): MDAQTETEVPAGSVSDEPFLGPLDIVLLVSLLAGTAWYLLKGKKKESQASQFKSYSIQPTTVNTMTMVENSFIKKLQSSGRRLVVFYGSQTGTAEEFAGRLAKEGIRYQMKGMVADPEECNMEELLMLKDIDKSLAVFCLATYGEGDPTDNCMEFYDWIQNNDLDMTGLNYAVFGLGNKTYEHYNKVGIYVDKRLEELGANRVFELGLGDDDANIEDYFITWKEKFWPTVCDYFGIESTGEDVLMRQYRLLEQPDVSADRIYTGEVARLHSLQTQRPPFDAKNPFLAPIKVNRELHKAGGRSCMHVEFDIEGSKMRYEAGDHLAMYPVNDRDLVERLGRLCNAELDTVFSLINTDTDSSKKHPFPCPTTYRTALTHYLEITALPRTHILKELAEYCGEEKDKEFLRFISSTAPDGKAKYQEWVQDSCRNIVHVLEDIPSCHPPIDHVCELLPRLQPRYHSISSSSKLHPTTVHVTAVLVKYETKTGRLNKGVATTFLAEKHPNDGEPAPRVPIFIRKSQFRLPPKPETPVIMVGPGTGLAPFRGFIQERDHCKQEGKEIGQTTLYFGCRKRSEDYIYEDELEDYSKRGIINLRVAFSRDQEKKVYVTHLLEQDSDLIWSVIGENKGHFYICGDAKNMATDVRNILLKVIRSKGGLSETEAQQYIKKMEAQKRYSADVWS
The data set can be described thus: reverse-phase HPLC, E. coli membranes. It is filed as biochemical. As to conditions: 10 μM substrate, 0.1 mM NADPH with regeneration system, 5 mM MgCl2, 30°C.

Substrate in data set [1]: OCc1cccc(Oc2ccccc2)c1
The data set can be described thus: reverse-phase HPLC, yeast microsomes. It is filed as biochemical, Aedes aegypti. As to conditions: 0.1 mM NADPH with regeneration system, 5 mM MgCl2, 30°C.

Substrate in data set [2]: O=c1ccc2nc3ccc(OCc4ccccc4)cc3oc-2c1
The data set can be described thus: resorufin fluorescence, yeast microsomes. The format is biochemical, Aedes aegypti. The note with it: apparent, 0.1 mM NADPH with regeneration system, 0.1 M phosphate pH 7.4, 30°C, 15 min. From the text:
(§1) resorufin fluorescence, yeast microsomes on CYP6Z8 (W(AeR)-CYP6Z8 microsomes; CYP6Z8v1)

Substrate in data set [3]: CCCCCOc1ccc2nc3ccc(=O)cc-3oc2c1
Description: resorufin fluorescence, yeast microsomes. The format is biochemical, Aedes aegypti. The note with it: apparent, 0.1 mM NADPH with regeneration system, 0.1 M phosphate pH 7.4, 30°C, 15 min.
Text: as §1

Substrate in data set [4]: CCOc1ccc2nc3ccc(=O)cc-3oc2c1
The data set can be described thus: resorufin fluorescence, yeast microsomes. The format is biochemical, Aedes aegypti. As to conditions: apparent, 0.1 mM NADPH with regeneration system, 0.1 M phosphate pH 7.4, 30°C, 15 min.
Text: as §1

Substrate in data set [5]: CCOc1ccc2ccc(=O)oc2c1
Description: 7-hydroxycoumarin fluorescence (O-de-ethylation), yeast microsomes. It is filed as biochemical, Aedes aegypti. The note with it: apparent, 0.1 mM NADPH with regeneration system, 0.1 M phosphate pH 7.4, 30°C, 15 min. The source says:
7-hydroxycoumarin fluorescence (O-de-ethylation), yeast microsomes on CYP6Z8 (W(AeR)-CYP6Z8 microsomes; CYP6Z8v1)

As for `O=Cc1cccc(Oc2ccccc2)c1` [PBAld], the “reverse-phase HPLC, E. coli membranes” value on CYP6Z2 (AgCYP6Z2) was “demonstrated the ability of CYP6Z2 to metabolize both PBAlc and PBAld”.
Still for that read-out and setting: under `OCc1cccc(Oc2ccccc2)c1` [PBAlc] stands “demonstrated the ability of CYP6Z2 to metabolize both PBAlc and PBAld”.

B1: CYP6Z8 (W(AeR)-CYP6Z8 microsomes; CYP6Z8v1) (Aedes aegypti) (protein)
chain: MFIYTFALFWLAVAFAIRYIYSYWDRNGLPSIKPHIPYGNLKTVANRTESFGVATCDLYWKSKDRLVGIYLFFRPAVLIRDAHLAQQIMTTDFSHFHDRGVFCNEEVDPFSANLFALAGKRWRNLRNKFTPLFTGGQLRCMMPTILNVGHKLQNVLEPAAKKQEVLEIRELVSRCVLDIIASVFFGFEANCINDPNDAFIQNLRELQYDGFFNNLRAAATFICPELLKLTRISSLSPEMIRFVTDIVTKQIEHREKNNVTRKDFIQLLIDLRREDANNNEATLGLEECAANVFLFYVAGSDTSTSAVAFTLHELTQNVETMEKLQTEIDEMLVKTSGELTYDGIKEMSYLDLCVKETLRKYPGLAILNRECTKSYAVPNSNIVLKKGTQVVIPLLAYGMDEKYFPEPDRYLPERFDKSTKNYDEKAFYPFGEGPRNCIAFRMGVMVSKICLVLLLSRFNFEATRGPKINFTPSTVALLPKGGIPVKISIR
notes: full-length, no protein modification; codon-optimised gene in S. cerevisiae W(AeR) with Ae. aegypti CPR integrated; microsomes; with NADPH--cytochrome P450 reductase
Regarding B1, the Km – broadly, the concentration of substrate that gives half-maximal velocity – in data set [1] amounted to 15.1 ± 2.9 µM; in data set [2], 0.13 ± 0.02 µM; in data set [3] it was 13.96 ± 3.14 µM; in data set [4] it was 2.39 ± 0.28 µM; in data set [5], 5.90 ± 0.90 µM. Moreover, the kcat – broadly, the number of substrate molecules converted per active site and unit of time at saturation – in data set [1] was determined as 0.011 ± 0.0005 s⁻¹; in data set [2], 0.00162 ± 3.3e-05 s⁻¹; in data set [3] it was 0.00217 ± 0.00017 s⁻¹; in data set [4], 0.0198 ± 0.00083 s⁻¹; in data set [5], 0.0163 ± 0.00067 s⁻¹.
